One block for each molecule: values may come before it.
Columns and labels:
[1] = tested on: Prp43;Cmg1 (Saccharomyces cerevisiae?;Saccharomyces cerevisiae?); assay: fluorescence anisotropy
[2] = tested on: Prp43; assay: fluorescence anisotropy
[3] = biological target: Prp43 92–767 (Saccharomyces cerevisiae, UniProt P53131); settings: ATPase assay of the truncation; details in supplement
[4] = biological target: Prp43 1–657 (Saccharomyces cerevisiae, UniProt P53131); settings: ATPase assay of the truncation; details in supplement
Sequence of Prp43 1–657 (P53131 1-657): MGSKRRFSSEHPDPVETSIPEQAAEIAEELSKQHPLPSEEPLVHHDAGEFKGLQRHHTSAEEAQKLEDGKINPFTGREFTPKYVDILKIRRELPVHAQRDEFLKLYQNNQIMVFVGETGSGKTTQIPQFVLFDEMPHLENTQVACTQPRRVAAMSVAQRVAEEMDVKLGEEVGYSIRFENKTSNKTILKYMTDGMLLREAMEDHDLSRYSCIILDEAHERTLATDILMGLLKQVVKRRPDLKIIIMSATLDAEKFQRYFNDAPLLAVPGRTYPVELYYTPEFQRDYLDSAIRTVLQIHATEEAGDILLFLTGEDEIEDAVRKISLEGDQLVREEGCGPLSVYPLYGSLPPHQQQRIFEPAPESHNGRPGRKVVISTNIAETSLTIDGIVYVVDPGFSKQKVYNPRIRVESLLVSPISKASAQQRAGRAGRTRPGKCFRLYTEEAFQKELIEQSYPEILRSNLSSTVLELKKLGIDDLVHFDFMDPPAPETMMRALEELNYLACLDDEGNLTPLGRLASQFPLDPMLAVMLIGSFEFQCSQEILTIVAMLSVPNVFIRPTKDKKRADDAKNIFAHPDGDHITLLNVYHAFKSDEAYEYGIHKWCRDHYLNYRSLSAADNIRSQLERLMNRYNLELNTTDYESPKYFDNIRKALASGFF

[5] = biological target: His-GFP-tagged Prp43 (S. cerevisiae, UniProt P53131 1-767); assay: pull-down
Sequence of His-GFP-tagged Prp43 (P53131 whole entry): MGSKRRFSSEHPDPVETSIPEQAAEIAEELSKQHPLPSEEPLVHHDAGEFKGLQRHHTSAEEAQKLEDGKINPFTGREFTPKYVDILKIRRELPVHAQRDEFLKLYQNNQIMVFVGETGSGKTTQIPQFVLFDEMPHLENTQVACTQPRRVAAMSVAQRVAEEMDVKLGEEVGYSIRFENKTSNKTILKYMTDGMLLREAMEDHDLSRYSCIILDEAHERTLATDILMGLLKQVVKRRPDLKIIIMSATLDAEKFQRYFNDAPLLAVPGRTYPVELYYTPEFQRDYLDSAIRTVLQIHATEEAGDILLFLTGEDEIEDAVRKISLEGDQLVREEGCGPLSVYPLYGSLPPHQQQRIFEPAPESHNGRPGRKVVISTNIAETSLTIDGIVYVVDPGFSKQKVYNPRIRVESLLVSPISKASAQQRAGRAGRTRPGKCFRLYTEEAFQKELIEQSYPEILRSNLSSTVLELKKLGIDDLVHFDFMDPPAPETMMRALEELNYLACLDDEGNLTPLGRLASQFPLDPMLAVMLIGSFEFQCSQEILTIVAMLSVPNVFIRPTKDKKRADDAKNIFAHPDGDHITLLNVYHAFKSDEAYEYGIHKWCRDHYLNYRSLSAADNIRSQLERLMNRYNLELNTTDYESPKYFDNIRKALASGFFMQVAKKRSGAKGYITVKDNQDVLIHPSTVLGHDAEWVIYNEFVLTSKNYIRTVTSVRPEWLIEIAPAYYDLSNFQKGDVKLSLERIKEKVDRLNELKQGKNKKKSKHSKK

[6] = biological target: His10-ZZ-TEV-tagged full length Prp43 (S. cerevisiae, UniProt P53131 1-767); assay: pull-down
Sequence of His10-ZZ-TEV-tagged full length Prp43 (P53131 whole entry): as above

Sequence of Prp43 92–767 (P53131 92-767): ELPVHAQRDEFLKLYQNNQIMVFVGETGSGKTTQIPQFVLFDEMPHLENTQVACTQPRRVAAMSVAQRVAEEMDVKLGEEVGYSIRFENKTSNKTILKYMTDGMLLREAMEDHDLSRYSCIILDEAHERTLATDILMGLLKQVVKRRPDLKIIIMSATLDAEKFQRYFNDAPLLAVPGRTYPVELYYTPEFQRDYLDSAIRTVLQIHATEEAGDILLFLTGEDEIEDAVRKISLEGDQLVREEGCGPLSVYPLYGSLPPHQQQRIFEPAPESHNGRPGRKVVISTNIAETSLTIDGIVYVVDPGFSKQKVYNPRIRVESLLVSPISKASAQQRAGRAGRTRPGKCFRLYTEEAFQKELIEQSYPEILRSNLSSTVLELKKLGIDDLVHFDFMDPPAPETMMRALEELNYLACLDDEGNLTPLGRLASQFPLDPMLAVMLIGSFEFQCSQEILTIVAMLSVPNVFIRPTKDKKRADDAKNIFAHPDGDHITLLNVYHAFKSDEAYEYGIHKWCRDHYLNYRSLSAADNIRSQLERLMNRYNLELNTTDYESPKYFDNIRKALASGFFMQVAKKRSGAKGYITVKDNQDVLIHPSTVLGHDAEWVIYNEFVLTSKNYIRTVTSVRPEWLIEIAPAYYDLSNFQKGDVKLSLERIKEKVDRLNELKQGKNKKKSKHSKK

Molecule: fluorescein-labeled 11 nt RNA
- Kd [1]: 2.3 nM
- Kd [2]: 60 nM

Molecule: Nc1ncnc2c1ncn2[C@@H]1O[C@H](COP(=O)(O)OP(=O)(O)OP(=O)(O)O)[C@@H](O)[C@H]1O [ATP]
- NADH-coupled ATPase assay (pyruvate kinase / LDH), A340 [3]: the N- and C-terminal truncations of Prp43 themselves show ATPase activity
- NADH-coupled ATPase assay (pyruvate kinase / LDH), A340 [4]: the N- and C-terminal truncations of Prp43 themselves show ATPase activity

B1: His10-MBP-TEV-tagged Sqs1 705–767 (domain or fragment)
chain: VKEGEIVGQNAPEIGNENIGRRMLEKLGWKSGEGLGIQGNKGISEPIFAKIKKNRSGLRHSES
- binding result [5]: binds

B2: His10-MBP-TEV-tagged Cmg1 1–85 (domain or fragment)
chain: MEESKTKRKEDRIDLKNTPPQKKSKRDSTNDETARTSLRSIMPRGYKMMENMGYKEGETLGSNESALKEPIKVEINTKRRGIRAE
- binding result [6]: binds
- binding result [5]: binds

B4: MBP-tagged full length Cmg1 (natural protein)
chain: MEESKTKRKEDRIDLKNTPPQKKSKRDSTNDETARTSLRSIMPRGYKMMENMGYKEGETLGSNESALKEPIKVEINTKRRGIRAEKPDPSTMNDMQMSEQRFIKRESEMKNNKRLKKIWYRIQKVAFEMMGDSDLYNPGEDPRDFNVLWRSYVMQLNEEVAKNDLNNHSNNDNEDKNNMIPMVNESLEASPAIKGEKFGRPSTLIDCDTSIIGSRITKDTELAELEELSIEKRITKLNIFLRSEKYYCFFCGIKYKDEGDLYEHCPGVNEDDHK
- binding result [6]: binds

Now from value to molecule:

- binding result [5]: binds
B3: His10-ZZ-TEV-tagged Cmg1 (natural protein)
chain: B4 chain

- binding result [5]: binds
B5: His10-ZZ-TEV-tagged Spp382 G-patch domain (amino acids 51–110) (domain or fragment)
chain: NAPTISKLTKTYGIGAKLLSSMGYVAGKGLGKDGSGITTPIETQSRPMHNAGLGMFSNTN

- binding result [5]: binds
B6: His10-MBP-TEV-tagged Pxr1 1–82 (domain or fragment)
chain: MGLAATRTKQRFGLDPRNTAWSNDTSRFGHQFLEKFGWKPGMGLGLSPMNSNTSHIKVSIKDDNVGLGAKLKRKDKKDEFDN

Reference: PMC4829300 (RNA Biology, 2016)
